Laboratory results as given in the supplement of paper PMC7125110.
± gives the standard error. Fewer inactive variants are shown than the library holds.

B1: glmS ribozyme (parent)
chain: AUAAAAGCGCCAGAACUACAGAAAUGUAGUUGACGAGGAGGAGGUUUAUCGAAUUUUCGGCGGAUGCCUCCAAA

How the values were obtained:
Details in all cases: with glucosamine-6-phosphate
glucosamine-6-phosphate [1] = variants of: B1; assay: self-cleavage kobs at 640 uM GlcN6P; higher = faster cleavage; RNA array
In short: (§1)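 Tiles bearing barcoded ribozyme variants, transcribed in situ by E. coli RNA polymerase on sequenced MiSeq chips, were imaged over ~14 h at 37 °C using a hybridised Cy3 probe. Glucosamine-6-phosphate was supplied at 40 μM to 10 mM in HEPES/KCl/Mg(OAc)2 buffer. kobs came from one- or two-exponential decay fits to normalised per-tile medians, and weighted Michaelis–Menten fits then provided kcat and KM.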

glucosamine-6-phosphate [2] = variants of: B1; assay: self-cleavage kobs at 2500 uM GlcN6P; higher = faster cleavage; RNA array
In short: as §1

glucosamine-6-phosphate [3] = variants of: B1; assay: self-cleavage kobs at 10000 uM GlcN6P; higher = faster cleavage; RNA array
In short: as §1

glucosamine-6-phosphate [4] = variants of: B1; assay: self-cleavage kobs at 160 uM GlcN6P; higher = faster cleavage; RNA array
In short: as §1

| Variant | self-cleavage kobs at 640 uM GlcN6P (glucosamine-6-phosphate [1]) [s⁻¹] | self-cleavage kobs at 2500 uM GlcN6P (glucosamine-6-phosphate [2]) [s⁻¹] | self-cleavage kobs at 10000 uM GlcN6P (glucosamine-6-phosphate [3]) [s⁻¹] | self-cleavage kobs at 160 uM GlcN6P (glucosamine-6-phosphate [4]) [s⁻¹] |
| --- | --- | --- | --- | --- |
| C8U C10G C67G | 0.000675 ± 0.00032 | – | – | – |
| C8A C16A A39U G59U | < 1e-05 | – | – | – |
| G7A U31G C67U | < 1e-05 | – | – | – |
| A6G U30A A39U G60U | < 1e-05 | < 1e-05 | – | – |
| C8U U47G | < 1e-05 | – | < 1e-05 | – |
| C50A C67U C68U | 6.87e-05 ± 2.8e-05 | 0.000153 ± 6.2e-05 | – | 6.13e-05 ± 3.1e-05 |
| C50G G63A A64U | 0.000136 ± 4.5e-05 | – | – | 0.000145 ± 4.6e-05 |
| G9C G37C C70G | < 1e-05 | < 1e-05 | – | – |
| C8G A14C G63A | < 1e-05 | < 1e-05 | – | – |
| G59C G63A | < 1e-05 | – | < 1e-05 | < 1e-05 |
| G40U U49C U65G | – | < 1e-05 | – | < 1e-05 |
| G7A C16G A48U G60C C70A | < 1e-05 | < 1e-05 | – | – |
| G51C G60A U69A | – | – | – | < 1e-05 |
| G66A U69G | 0.000427 ± 0.0001 | 0.00012 ± 2.1e-05 | 4.74e-05 ± 1.7e-05 | 8.36e-05 ± 2.3e-05 |
| G9C A12G G29A | < 1e-05 | – | – | – |
| G7A A53C C68U | < 1e-05 | < 1e-05 | – | – |
| G9C G63U G66A C68A C71A | < 1e-05 | < 1e-05 | – | – |
| A6G C11U G60A C71U | < 1e-05 | < 1e-05 | – | – |
| C8G A15G G40U | < 1e-05 | – | – | – |
| A52C U65C | < 1e-05 | – | – | < 1e-05 |

| Variant | self-cleavage kobs at 640 uM GlcN6P (glucosamine-6-phosphate [1]) [s⁻¹] | self-cleavage kobs at 2500 uM GlcN6P (glucosamine-6-phosphate [2]) [s⁻¹] | self-cleavage kobs at 10000 uM GlcN6P (glucosamine-6-phosphate [3]) [s⁻¹] | self-cleavage kobs at 160 uM GlcN6P (glucosamine-6-phosphate [4]) [s⁻¹] |
| --- | --- | --- | --- | --- |
| A39G G41C U46G A64U | – | – | – | < 1e-05 |
| G43C A48G C71G | < 1e-05 | < 1e-05 | – | < 1e-05 |
| G9A G35U U47A C70U | < 1e-05 | < 1e-05 | – | – |
| C8G A33U U46A U69G | < 1e-05 | < 1e-05 | – | – |
| C61A A64C | < 1e-05 | < 1e-05 | < 1e-05 | < 1e-05 |
| A6C A53U C70U | 6.59e-05 ± 3.2e-05 | – | – | – |
| G9A G51U A52C | < 1e-05 | < 1e-05 | – | – |
| C8U G66C C71G | < 1e-05 | – | – | – |
| G44A U56A C70U | < 1e-05 | – | – | < 1e-05 |
| U45G G51C A64C | < 1e-05 | – | – | < 1e-05 |
| U49C G51C | < 1e-05 | < 1e-05 | – | < 1e-05 |
| G37U C50G | – | – | – | 7.65e-05 ± 3.7e-05 |
| G7U U45A A53G U56G | < 1e-05 | – | – | – |
| G9C C34U U49C U65G | < 1e-05 | – | – | – |
| G7A A15U U56G C58A | < 1e-05 | – | – | – |
| A48G G66C | < 1e-05 | < 1e-05 | < 1e-05 | < 1e-05 |
| G7C C58G | < 1e-05 | – | – | – |
| A36U U55C | < 1e-05 | – | – | < 1e-05 |
| A6C C10U C11A U56C | < 1e-05 | < 1e-05 | – | – |
| C8G G9U G51C | < 1e-05 | – | – | – |

| Variant | self-cleavage kobs at 640 uM GlcN6P (glucosamine-6-phosphate [1]) [s⁻¹] | self-cleavage kobs at 2500 uM GlcN6P (glucosamine-6-phosphate [2]) [s⁻¹] | self-cleavage kobs at 10000 uM GlcN6P (glucosamine-6-phosphate [3]) [s⁻¹] | self-cleavage kobs at 160 uM GlcN6P (glucosamine-6-phosphate [4]) [s⁻¹] |
| --- | --- | --- | --- | --- |
| A6G G7A G13U A15C C68A C70A | < 1e-05 | – | – | – |
| A42G U46G U65C C68U | – | – | – | < 1e-05 |
| G37A G51A C71A | – | < 1e-05 | – | < 1e-05 |
| U45G U57A G59A G62U | – | < 1e-05 | < 1e-05 | < 1e-05 |
| G37A G62C | < 1e-05 | < 1e-05 | < 1e-05 | < 1e-05 |
| A6C C11U G51C C67G C68A | 0.000105 ± 2.8e-05 | 0.00015 ± 3.5e-05 | – | – |
| A6G G9A A39C A42U U46A A53U C68U C71G | < 1e-05 | – | – | – |
| G44A U54C U65G C68G | < 1e-05 | < 1e-05 | – | < 1e-05 |
| G7C C8U | < 1e-05 | – | – | – |
| U49G G60C | < 1e-05 | < 1e-05 | – | < 1e-05 |
| G51U U55G C58G C61G | – | – | – | 3.64e-05 ± 1.6e-05 |
| U45C A48U U69C | < 1e-05 | – | – | < 1e-05 |
| G7U A53U A64G | < 1e-05 | < 1e-05 | – | – |
| G7A A42C A52G U55A | < 1e-05 | < 1e-05 | – | – |
| A6G A12C G43C | < 1e-05 | < 1e-05 | – | – |
| A6C U31G G40U G43A C50G G60C | < 1e-05 | – | < 1e-05 | – |
| U69G C70G | 0.000255 ± 0.00013 | 3.6e-05 ± 9.1e-06 | – | 3.61e-05 ± 8.8e-06 |
| G38U U56C U65A | – | < 1e-05 | < 1e-05 | < 1e-05 |
| U57C C58U | – | – | – | < 1e-05 |
